Legend:
[1] = target: T1, full length human MSR1 with a C-terminal Myc tag, on HEK293.Myc.hMSR1 cells (human, UniProt P21757 1-451); assay: cell-based or functional assay
T1 sequence (looked up): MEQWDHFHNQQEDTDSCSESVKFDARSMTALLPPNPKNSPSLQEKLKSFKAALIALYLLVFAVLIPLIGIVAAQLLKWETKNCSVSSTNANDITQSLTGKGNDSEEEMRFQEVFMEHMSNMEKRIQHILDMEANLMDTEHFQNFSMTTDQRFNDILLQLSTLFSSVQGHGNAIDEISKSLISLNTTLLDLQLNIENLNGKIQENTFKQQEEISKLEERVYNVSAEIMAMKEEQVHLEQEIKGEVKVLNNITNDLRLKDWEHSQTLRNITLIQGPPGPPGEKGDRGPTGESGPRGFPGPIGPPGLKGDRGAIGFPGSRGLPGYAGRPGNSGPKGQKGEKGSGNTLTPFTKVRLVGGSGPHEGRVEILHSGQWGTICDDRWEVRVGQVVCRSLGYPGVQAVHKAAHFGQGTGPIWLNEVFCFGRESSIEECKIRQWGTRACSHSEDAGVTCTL

[2] = target: T2, full length monkey MSR1 on HEK293.mfMSR1 cells (Macaca fascicularis, UniProt A0A2K5UWE2 1-451); assay: ECL cell binding, HEK293.mfMSR1 cells, 11 nM
T2 construct: whole, on cells
T2 sequence: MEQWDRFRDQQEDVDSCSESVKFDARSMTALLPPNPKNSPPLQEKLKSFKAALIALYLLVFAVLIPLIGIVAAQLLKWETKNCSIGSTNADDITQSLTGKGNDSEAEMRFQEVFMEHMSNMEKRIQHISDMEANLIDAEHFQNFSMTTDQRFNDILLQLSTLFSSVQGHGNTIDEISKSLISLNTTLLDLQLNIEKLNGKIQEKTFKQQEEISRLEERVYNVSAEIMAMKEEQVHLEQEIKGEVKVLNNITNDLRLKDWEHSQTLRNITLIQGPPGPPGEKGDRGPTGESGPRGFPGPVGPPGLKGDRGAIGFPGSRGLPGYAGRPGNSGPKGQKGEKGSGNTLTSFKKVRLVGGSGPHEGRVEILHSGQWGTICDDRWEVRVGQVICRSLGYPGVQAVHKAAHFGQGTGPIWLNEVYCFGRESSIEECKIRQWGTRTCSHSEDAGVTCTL
Method: (§1) All cells were washed once with 1×PBS with Ca²⁺/Mg²⁺ and counted with a Cellometer™ Auto T4 cell counter (Nexcelom Bioscience). Approximately 1.0×10⁴ cells were seeded separately onto 96-well carbon electrode plates [MULTI-ARRAY high bind plate, Meso Scale Diagnostics] and incubated for 1 hour at 37° C. Non-specific binding sites were then blocked by 2% BSA (w/v) in PBS with Ca²⁺/Mg²⁺ for 1 hour at room temperature. THP-1 cells were pre-incubated for 0.5 hours at room temperature in sample dilution buffer with: 1) 1 mg/mL Fc receptor block reagents to block Fc gamma receptors on THP-1 cell surface [whole molecule human IgG (Jackson Immunoresearch, Cat #009-000-003) for wells being tested with anti-MSR1-mFc antibodies or 2) whole molecule mlgG (Jackson Immunoresearch, Cat #015-000-003) for wells being tested with anti-MSR1-hFc antibodies. Antibody binding on HEK293.Myc.hMSR1, HEK293.mfMSR1 and HEK293 cells was tested without Fc receptor block reagents. […] Plates were then washed to remove unbound antibodies an AquaMax2000 plate washer with a cell washing head (MDS Analytical Technologies). […] Plates were washed and developed with Read Buffer (Meso Scale Diagnostics, Cat # R92TD-2) according to manufacturer's recommended procedure and luminescent signals were recorded with a SECTOR Imager 600 (Meso Scale Diagnostics). Luminescence intensity, measured in relative light units (RLU), was recorded to indicate the binding intensity of each antibody at the range of concentrations.

[3] = target: T1, full length human MSR1 with a …; assay: ECL cell binding, HEK293.Myc.hMSR1 cells, 11 nM
Method: as §1

[4] = target: T3, mouse MSR1 on RAW264.7 cells (mouse, UniProt P30204 1-458); assay: flow cytometry, RAW264.7 cells
T3 construct: whole, on cells; also called MSR1 positive RAW264.7 cells
T3 sequence (looked up): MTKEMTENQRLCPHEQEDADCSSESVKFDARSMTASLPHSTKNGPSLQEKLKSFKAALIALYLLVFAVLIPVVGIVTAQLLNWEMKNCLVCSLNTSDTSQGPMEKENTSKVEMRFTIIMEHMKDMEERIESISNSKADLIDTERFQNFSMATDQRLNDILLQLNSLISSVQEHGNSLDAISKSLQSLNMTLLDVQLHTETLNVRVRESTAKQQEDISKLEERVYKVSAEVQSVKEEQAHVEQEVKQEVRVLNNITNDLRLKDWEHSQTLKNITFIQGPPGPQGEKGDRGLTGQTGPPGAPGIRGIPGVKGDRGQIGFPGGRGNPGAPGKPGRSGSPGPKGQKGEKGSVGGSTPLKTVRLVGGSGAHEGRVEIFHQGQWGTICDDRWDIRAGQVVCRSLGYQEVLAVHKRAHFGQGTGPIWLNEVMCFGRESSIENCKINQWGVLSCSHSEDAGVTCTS
Method: To block binding to Fc receptors, RAW264.7 cells were incubated for 30 minutes at 4° C. with 500 pg/mL mouse IgG (Jackson ImmunoResearch, Cat #015-000-003) diluted in staining buffer, while B16F10.9 cells remained in staining buffer. […] The signal to noise (S/N) was determined by calculating the ratio of the anti-MSR1 antibodies or the control antibodies MFI to the unstained sample MFI (Table 11).

B1: H1H27762P2-N297Q (antibody, human IgG1, V domains shown)
VH: QVQLVQSGAEVKKPGSSVKVSCKASGGTFSRYDISWVRQAPGQGLEWMGGIIPIFGTSNYAQKFQGRVTITTDESTSTVYMELSSLRSEDTAVYYCARGGRYGWFDPWGQGTLVTVSS
VL: not shown
notes: human IgG1 Fc with N297Q; also called H1H27762P-N297Q
- % Inhibition of Dil-Acetylated LDL uptake [1]: 38%
- % Inhibition of Dil-Oxidized LDL uptake [1]: 78%
- IC50 of Dil-Acetylated LDL uptake inhibition [1]: 2.9 nM
- IC50 of Dil-Oxidized LDL uptake inhibition [1]: 4 nM
- ratio of binding signal (RLU) to isotype control [2]: 25 fold
- ratio of binding signal (RLU) to isotype control [3]: 33 fold
- MFI [4]: 3520 MFI
- S/N (MFI over unstained MFI) [4]: 1

B2: H1H21234N-N297Q (antibody, human IgG1, V domains shown)
VH: QVQLQESGPGLVKPSETLSLTCTVTGGSISRNYWSWIRQPPGKGLEWIGYIYYSGSIDYNPSLKSRVTISVDTSKNQFSLKLSSMTAADTAVYYCARDRWNWKYGMDVWGQGTTVIVSS
VL: EIVLTQSPGTLSLSPGERATLSCRASQTVRNNYLAWYHQKPGQAPRLLIYGASSRATGIPDRFSGSGSGTDFTLTISRLEPEDFTVYYCHQYGNSPWTFGQGTKMEIKR
notes: human IgG1 Fc with N297Q point mutation (EU numbering)
- % Inhibition of Dil-Acetylated LDL uptake [1]: 34%
- % Inhibition of Dil-Oxidized LDL uptake [1]: 52%
- IC50 of Dil-Acetylated LDL uptake inhibition [1]: 1.3 nM
- IC50 of Dil-Oxidized LDL uptake inhibition [1]: 6.1 nM
- ratio of binding signal (RLU) to isotype control [2]: 35 fold
- ratio of binding signal (RLU) to isotype control [3]: 43 fold
- MFI [4]: 7050 MFI
- S/N (MFI over unstained MFI) [4]: 3

B3: H1H27759P2-N297Q (antibody, human IgG1, V domains shown)
VH: EVQLVESGGGFVQPGGSLRLSCAASGFTFSSYAMSWVRQAPGKGLEWVSAISGTGSNTYYADSVKGRFTISRDNSKNTLYLQMNSLRAEDTAVYYCAKDRVTTVTYYFDYWGQGTLVTVSS
VL: not shown
notes: human IgG1 Fc with N297Q; also called H1H27759P-N297Q
- % Inhibition of Dil-Acetylated LDL uptake [1]: 48%
- % Inhibition of Dil-Oxidized LDL uptake [1]: 74%
- IC50 of Dil-Acetylated LDL uptake inhibition [1]: > 100 nM
- IC50 of Dil-Oxidized LDL uptake inhibition [1]: > 10 nM
- ratio of binding signal (RLU) to isotype control [2]: 25 fold
- ratio of binding signal (RLU) to isotype control [3]: 23 fold
- MFI [4]: 3290 MFI
- S/N (MFI over unstained MFI) [4]: 1

B4: H1H27729P-N297Q (antibody, human IgG1, V domains shown)
VH: QVQLVESGGGLVKPGGSLRLSCAASGFIFSDYYMSWIRQAPGKGLEWVSYISSSGTTIYGDSVKGRFTMSRDNAKNSLYLQMNSLRAEDTAVYYCARNYALFDYWGQGTLVTVSS
VL: DIQMTQSPSSLSASVGDRVTITCQASQDISKYLNWYQQKPGKAPKLLIYYTSNLETGVPSRFSGSGSGTDFTFTISSLQPEDIATYYCHQSDYLPFTFGPGTKVDIKR
notes: human IgG1 Fc with N297Q
- % Inhibition of Dil-Acetylated LDL uptake [1]: 28%
- IC50 of Dil-Acetylated LDL uptake inhibition [1]: 1.2 nM
- ratio of binding signal (RLU) to isotype control [2]: 6 fold
- ratio of binding signal (RLU) to isotype control [3]: 17 fold
- MFI [4]: 3480 MFI
- S/N (MFI over unstained MFI) [4]: 1

B5: H1H27761P2-N297Q (antibody, human IgG1, V domains shown)
VH: EVQLVESGGDLVQPGGSLRLSCSASGFTFNIYAMSWVRQAPGKGLEWVSGISGSGGSTYYADSVKGRFTISRDNSKNTLYFQMNSLRVEDTAVYYCAKKISSSSYYYYAMDVWGQGTTVTVSS
VL: not shown
notes: human IgG1 Fc with N297Q; also called H1H27761P-N297Q
- % Inhibition of Dil-Acetylated LDL uptake [1]: 29%
- % Inhibition of Dil-Oxidized LDL uptake [1]: 43%
- IC50 of Dil-Acetylated LDL uptake inhibition [1]: > 100 nM
- IC50 of Dil-Oxidized LDL uptake inhibition [1]: 9.5 nM
- ratio of binding signal (RLU) to isotype control [2]: 15 fold
- ratio of binding signal (RLU) to isotype control [3]: 23 fold
- MFI [4]: 3840 MFI
- S/N (MFI over unstained MFI) [4]: 1

B6: H1H27766P2-N297Q (antibody, human IgG1, V domains shown)
VH: EVQLVESGGGLVQPGGSLRLSCAASGFTFSSFAMSWVRQAPGKELEWVSSISGRGGSTYYADSVRGRFTISRDNSKITLYLQMNSLRAEDTAVYYCAKDIVFRYTSSAYWYFDLWGRGTLVTVSS
VL: not shown
notes: human IgG1 Fc with N297Q; also called H1H27766P-N297Q
- % Inhibition of Dil-Acetylated LDL uptake [1]: 38%
- % Inhibition of Dil-Oxidized LDL uptake [1]: 72%
- IC50 of Dil-Acetylated LDL uptake inhibition [1]: 3.5 nM
- IC50 of Dil-Oxidized LDL uptake inhibition [1]: 3.7 nM
- ratio of binding signal (RLU) to isotype control [2]: 13 fold
- ratio of binding signal (RLU) to isotype control [3]: 20 fold
- MFI [4]: 3810 MFI
- S/N (MFI over unstained MFI) [4]: 1

— patent US20190367631A1 (Regeneron, published 2019)
